T1: GST-tagged IsdA (Staphylococcus aureus, UniProt A5IS16 47-316)
T1 sequence: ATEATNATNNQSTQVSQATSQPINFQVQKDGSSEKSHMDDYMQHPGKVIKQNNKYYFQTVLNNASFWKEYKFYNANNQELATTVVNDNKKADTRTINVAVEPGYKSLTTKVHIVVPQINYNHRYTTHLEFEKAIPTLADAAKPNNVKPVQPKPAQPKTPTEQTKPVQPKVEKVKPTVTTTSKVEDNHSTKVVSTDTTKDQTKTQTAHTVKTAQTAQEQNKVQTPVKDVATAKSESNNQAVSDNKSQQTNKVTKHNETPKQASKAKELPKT


Experiments:
GST-tagged IsdA = molecular target: T1, GST-tagged IsdA; experiment: cell-based or functional assay
[1] = molecular target: T2, Poly-histidine tagged IsdB (Staphylococcus aureus, UniProt A5IS15 41-613); experiment: ELISA, coated poly-His IsdB
T2 construct: also called IsdBFL; recombinant IsdB
Method: Proteins were used to coat Nunc MaxiSorp 96-well plates at a concentration of 1 μg ml⁻¹ PBS. Plates were washed and incubated with PBS-Tween and variable concentrations of MAbs.

GST-tagged IsdBC = GST-tagged IsdBC (Staphylococcus aureus Newman, UniProt A5IS15 328-645); experiment: cell-based or functional assay

Binder	Δheme binding: percent change in Δ peak absorbance at 405 nm and 368 nm (GST-tagged IsdA)	binding result [1]	Δheme binding: percent change in Δ peak absorbance at 405 nm and 368 nm (GST-tagged IsdBC)
MAb 7D4 (antibody, V domains shown) VH: EVQLQESGPELVKPGTSVWISCKTSGFTFTKYTMHWVKQSHGKTLEWIGGIDPNNGDTSYNQKFKDKATLTVDKSSSTAYMELRSLTSEDSAVFFCVRLEGSLPLDYWGQGTTLTVSS VL: DVGMTQTPLSLPVSLGDQASISCGSSQSLLHSNGKTYLHWYLQKPGQSPKLLIYKVSNRFSGVPDRFSGSGSGTYFTLKITRVEAEDLGVYFCSQTTHVPFTFGSGTKLEIK	-0.6%	–	–
MAb 1B8 (antibody, V domains shown) VH: EVQLQESGPELVKPGTSVWISCKTSGFTFTKYTMHWVKQSHGKTLEWIGGIDPNNGDTSYNQKFKDKATLTVDKSSSTAYMELRSLTSEDSAVFFCVRLEGSLPLDYWGQGTTLTVSS VL: DVVMTQTPLSLPVSLGDQASISCRSSQSLVHSNGNTYLHWYLQKPGQSPKLLIYKVSSRFSGVPDRFSGSGSGTDFTLKISRVEAEDLGVYFCSQSTHVPYTFGGGTKLEIKR	0.5%	–	–
MAb 5H8 (antibody, V domains shown, also called 5H8.9) VH: GLTGEPGTSVKMSCRTSGYTFTEYTMHWVKQSHEKRLEWIGGIDPSNGDTSYNQKFKGKATLTVDKSSSSAYMDLRSLTSVDSAIYYCARLEGVLPLDYWGHGTTLTVSS VL: DIVMTQSQKFMSTSVRDRVAVTCKASQNVGTNVAWYQQKPGQSPKALIYSASYRYSGVPDRFTGSGSGTDFTLTISNVQSEDLAEYFCQQYNSYPYTFGGGTKLEVK	0.5%	no binding	–
MAb 3H11 (antibody, V domains shown, also called 3H11.47) VH: SLDLTGEPGASVKMSCRTSGYTFTEYTMHWVKQSHEKSLEWIGGIDPDNGDTSFNQKFKGKATLTVDKSSSTAYMELRSLTYDDTAIYLCARLEGVLPLDYWGQGTTLTVSS VL: DIVMTQSQKFMSTSVRDRVAVTCKASQNVGTNVAWYQQKPGQSPKALIYSASYRYSGVPDRFTGSGSGTDFTLTISNVQSEDLAEYFCQQYNSYPYTFGGGTKLEVK	0.5%	no binding	–
MAb 3D8 (antibody, V domains shown) VH: QVQLQQSGAELVRPGTSVKVSCKASGNAFTNYLIEWIKQRPGQGLEWIGVINPGSGITNYNEKFKGKATLTADKSSNTAYMQLSSLSSDDSAVYFCSGSANWFAYWGQGTLVTVSA VL: DVVMTQTPLSLPVSLGDQASISCRSSQSLVYSNGNTYLHWFLQKPGQSPKLLIYKVSNRFSGVPDRFSGSGSGTDFTLKISRVEAEDLGVYFCSQTTHIPLTFGAGTKLELK	34%	–	29.4%
MAb 7E9 (antibody, V domains shown) VH: DVQLQESGPGLVKPSQSLSLTCSVTGHSITSGYYWNWIRQFPGNKLEWMGYISFDGRNKYNPSLKNRISITRDTSKNQFFLKLNSVTSEDTATYFCTRLSYSTLDYWGQGTSVTVSS VL: DVVMTQTPLSLPVSLGDQASISCRSSQSLLYSNGNTYLHWYLQKPGQSPKLLIYKVSNRFSGVPDRFSASGSGTDFTLKISRVEAEDLGVYFCSQSTHVPLTFGAGTKLELK	35%	–	29%
MAb 4H7 (antibody, V domains shown) VH: EVQLLQSGPELVKPGTSVKMSCRTSGYTFTEYTMHWVKQSHEKRLEWIGGIDPSNGDTSYNQKFKGKATLTVDKSSSSAYMDLRSLTSVDSAIYYCARLEGVLPLDYWGHGTTLTVSS VL: DVVMTQTPLSLPVSLGDQASISCRSSQSLVYSNGNTYLHWFLQKPGQSPKLLIYKVSNRFSGVPDRFSGSGSGTDFTLKISRVEAEDLGVYFCSQTTHIPLTFGAGTKLELK	34.4%	–	29%

— patent publication US20140037650A1 (UNIVERSITY OF CHICAGO, published 2014)
